Source: publication PMC7790435
One block for each molecule: values may come before it.

Target: Thermotoga maritima CheA, full-length (Thermotoga maritima) (UniProt Q56310)
Test: cross-linking + SEC-MALS

stoichiometry N: 2
Molecule: Thermotoga maritima CheA, full-length (from UniProt Q56310 1-671) (enzyme)

stoichiometry N: 2
B1: Thermotoga maritima CheW (natural protein)
chain: KEFEVLSFEIDEQALAFDVDNIEMVIEKSDITPVPKSRHFVEGVINLRGRIIPVVNLAKILGISFDEQKMKSIIVARTKDVEVGFLVDRVLGVLRITENQLDLTNVSDKFGKKSKGLVKTDGRLIIYLDIDKIIEEITV
